Reference: PMC3228899 (Nature, 2011)

Columns and labels:
[1] = molecular target: Clb5-TAP-Cdk1 complex (budding yeast | budding yeast …, UniProt P30283 1-435; P00546 1-298); test: pull-down
[2] = molecular target: 3HA-Cln2-Cdk1 complex (budding yeast | budding yeast …, UniProt P20438 1-545; P00546 1-298)
Chain of 3HA-Cln2-Cdk1 complex (P20438 whole entry, chain 1 of 2): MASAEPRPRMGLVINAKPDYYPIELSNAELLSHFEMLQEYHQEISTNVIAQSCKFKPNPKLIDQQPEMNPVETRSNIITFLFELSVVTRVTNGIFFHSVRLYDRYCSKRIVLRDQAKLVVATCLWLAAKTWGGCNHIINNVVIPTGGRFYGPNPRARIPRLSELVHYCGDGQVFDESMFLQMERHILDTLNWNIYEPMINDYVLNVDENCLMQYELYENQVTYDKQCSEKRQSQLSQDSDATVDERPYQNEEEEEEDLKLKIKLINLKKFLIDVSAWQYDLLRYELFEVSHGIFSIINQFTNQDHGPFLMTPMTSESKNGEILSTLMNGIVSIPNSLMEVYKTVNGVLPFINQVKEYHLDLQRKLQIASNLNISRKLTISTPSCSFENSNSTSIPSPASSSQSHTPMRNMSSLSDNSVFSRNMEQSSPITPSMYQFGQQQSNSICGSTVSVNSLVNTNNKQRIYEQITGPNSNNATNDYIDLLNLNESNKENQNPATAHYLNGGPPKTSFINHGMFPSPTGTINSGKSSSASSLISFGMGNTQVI
Chain of 3HA-Cln2-Cdk1 complex (P00546 whole entry, chain 2 of 2): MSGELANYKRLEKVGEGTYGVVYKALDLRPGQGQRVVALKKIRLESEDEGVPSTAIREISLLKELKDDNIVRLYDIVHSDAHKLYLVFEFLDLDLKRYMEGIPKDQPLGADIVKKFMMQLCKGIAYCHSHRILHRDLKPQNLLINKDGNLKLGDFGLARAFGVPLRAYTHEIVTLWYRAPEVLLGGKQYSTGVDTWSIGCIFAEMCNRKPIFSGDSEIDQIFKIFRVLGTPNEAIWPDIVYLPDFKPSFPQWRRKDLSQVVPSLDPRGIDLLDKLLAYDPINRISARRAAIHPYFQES

Chain of Clb5-TAP-Cdk1 complex (P30283 whole entry, chain 1 of 2): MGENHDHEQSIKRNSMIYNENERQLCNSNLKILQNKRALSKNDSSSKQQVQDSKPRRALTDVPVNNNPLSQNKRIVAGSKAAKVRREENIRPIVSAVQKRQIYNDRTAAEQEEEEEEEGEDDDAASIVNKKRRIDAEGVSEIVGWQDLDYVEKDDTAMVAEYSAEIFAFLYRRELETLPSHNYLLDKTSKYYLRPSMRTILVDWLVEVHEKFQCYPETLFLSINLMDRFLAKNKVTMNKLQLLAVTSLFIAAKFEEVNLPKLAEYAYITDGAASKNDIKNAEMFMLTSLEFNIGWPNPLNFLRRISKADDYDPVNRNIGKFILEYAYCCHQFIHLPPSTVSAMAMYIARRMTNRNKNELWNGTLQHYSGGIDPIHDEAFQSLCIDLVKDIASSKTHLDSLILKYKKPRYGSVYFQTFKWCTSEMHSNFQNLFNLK
Chain of Clb5-TAP-Cdk1 complex (P00546 whole entry, chain 2 of 2): as the sequence (P00546 whole entry, chain 2 of 2) above

B1: full-length Sic1 (natural protein, budding yeast, UniProt P38634 1-284, looked up)
chain: MTPSTPPRSRGTRYLAQPSGNTSSSALMQGQKTPQKPSQNLVPVTPSTTKSFKNAPLLAPPNSNMGMTSPFNGLTSPQRSPFPKSSVKRTLFQFESHDNGTVREEQEPLGRVNRILFPTQQNVDIDAAEEEEEGEVLLPPSRPTSARQLHLSLERDEFDQTHRKKIIKDVPGTPSDKVITFELAKNWNNNSPKNDARSQESEDEEDIIINPVRVGKNPFASDELVTQEIRNERKRAMLRENPDIEDVITYVNKKGEVVEKRRLTDEEKRRFKPKALFQSRDQEH
B1: binds [1].

B2: Cks1 (endogenous, in yeast) (natural protein, UniProt P20486 1-150, looked up)
chain: MYHHYHAFQGRKLTDQERARVLEFQDSIHYSPRYSDDNYEYRHVMLPKAMLKVIPSDYFNSEVGTLRILTEDEWRGLGITQSLGWEHYECHAPEPHILLFKRPLNYEAELRAATAAAQQQQQQQQQQQQQQQQHQTQSISNDMQVPPQIS
For B2, the “stoichiometry N” value [2] was ~1 Cks1:Cdk1.
